# Assay results as given in patent US20130129731A1 (SAMSUNG ELECTRONICS, published 2013).
# Read-outs that look alike come from different tables or passages of the source.
# B1: IGTML4-4 antibody (antibody, V domains shown)
# VH: QVQLLQSGGGLVQPGGSLRVSCAASGFRFSMYVMTWVRQAPGKGLEWVSEISASGASTYYADSVKGRFTMSRDNSKNTVFLQMNSLRVEDTAVYYCARAYRYGMDVWGQGTMVTVSS
# VL: DIVMTQSPSSVSASVGDRVTLTCRASQNIGSWLAWYQQKPGNAPKLLIYRASNLRSGVPSRFSGSGSGTDFTLTISSLQPEDFATYFCQQATIFPLTFGGGTRVDIKR
# notes: also called anti c-Met antibody
# Experiments:
# [1] = molecular target: c-Met on human cells (Caki-1 cells, HUVECs, human primary hepatocytes) (human, UniProt P08581 25-1390); assay: cell-based or functional assay
# [2] = molecular target: T1, human c-Met antigen (Biacore analyte) (human, UniProt P08581 25-932, limits assumed); assay: SPR (Biacore), antibody immobilised on a CM5 chip, c-Met antigen injected
# Experimental: (§1) Binding affinity of the IGTML4-4 antibody constructed in Example 1 to c-Met antigens was analyzed using a Biacore (available from GE Healthcare).
# [3] = molecular target: T2, mouse c-Met antigen (Biacore analyte) (mouse, UniProt P16056 25-931, limits assumed); assay: as above
# Experimental: as §1
# BSA (Takara) = molecular target: T3, BSA (Takara) (Bos taurus, UniProt P02769); assay: ELISA, antigen coated on the plate, detection with goat anti-human IgG-HRP, absorbance at 450 nm
# T3 construct: commercial protein
# [4] = molecular target: T1, human c-Met antigen (Biacore analyte); assay: SPR (Biacore), antibody immobilised on a CM5 chip, c-Met antigen injected; remark: listed apart in the source
# Experimental: as §1
# [5] = molecular target: T2, mouse c-Met antigen (Biacore analyte); assay: as above; remark: listed apart in the source
# Experimental: as §1
# T2 sequence (P16056 25-931 limits assumed): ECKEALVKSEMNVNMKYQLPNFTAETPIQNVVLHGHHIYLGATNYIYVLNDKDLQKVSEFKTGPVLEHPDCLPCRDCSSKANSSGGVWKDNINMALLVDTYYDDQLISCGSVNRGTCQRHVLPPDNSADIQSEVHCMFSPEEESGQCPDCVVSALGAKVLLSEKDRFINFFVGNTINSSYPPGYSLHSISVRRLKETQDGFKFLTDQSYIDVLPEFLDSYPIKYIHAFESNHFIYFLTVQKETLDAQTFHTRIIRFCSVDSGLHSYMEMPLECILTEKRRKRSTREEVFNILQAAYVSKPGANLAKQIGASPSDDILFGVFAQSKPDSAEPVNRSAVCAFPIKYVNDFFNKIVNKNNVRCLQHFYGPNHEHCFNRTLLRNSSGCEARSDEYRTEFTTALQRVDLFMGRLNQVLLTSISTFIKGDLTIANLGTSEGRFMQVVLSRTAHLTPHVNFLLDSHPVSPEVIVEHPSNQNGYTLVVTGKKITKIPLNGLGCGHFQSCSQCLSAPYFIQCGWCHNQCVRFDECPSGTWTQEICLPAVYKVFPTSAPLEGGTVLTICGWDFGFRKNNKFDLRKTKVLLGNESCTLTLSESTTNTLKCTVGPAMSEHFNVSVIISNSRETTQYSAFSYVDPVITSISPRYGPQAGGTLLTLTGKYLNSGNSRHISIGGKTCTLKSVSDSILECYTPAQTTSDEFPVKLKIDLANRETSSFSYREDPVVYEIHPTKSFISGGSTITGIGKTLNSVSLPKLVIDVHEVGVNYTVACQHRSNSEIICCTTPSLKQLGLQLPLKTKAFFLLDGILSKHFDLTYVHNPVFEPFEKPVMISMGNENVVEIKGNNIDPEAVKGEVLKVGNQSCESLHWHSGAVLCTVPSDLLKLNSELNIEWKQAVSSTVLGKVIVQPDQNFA
# T1 sequence (P08581 25-932 limits assumed): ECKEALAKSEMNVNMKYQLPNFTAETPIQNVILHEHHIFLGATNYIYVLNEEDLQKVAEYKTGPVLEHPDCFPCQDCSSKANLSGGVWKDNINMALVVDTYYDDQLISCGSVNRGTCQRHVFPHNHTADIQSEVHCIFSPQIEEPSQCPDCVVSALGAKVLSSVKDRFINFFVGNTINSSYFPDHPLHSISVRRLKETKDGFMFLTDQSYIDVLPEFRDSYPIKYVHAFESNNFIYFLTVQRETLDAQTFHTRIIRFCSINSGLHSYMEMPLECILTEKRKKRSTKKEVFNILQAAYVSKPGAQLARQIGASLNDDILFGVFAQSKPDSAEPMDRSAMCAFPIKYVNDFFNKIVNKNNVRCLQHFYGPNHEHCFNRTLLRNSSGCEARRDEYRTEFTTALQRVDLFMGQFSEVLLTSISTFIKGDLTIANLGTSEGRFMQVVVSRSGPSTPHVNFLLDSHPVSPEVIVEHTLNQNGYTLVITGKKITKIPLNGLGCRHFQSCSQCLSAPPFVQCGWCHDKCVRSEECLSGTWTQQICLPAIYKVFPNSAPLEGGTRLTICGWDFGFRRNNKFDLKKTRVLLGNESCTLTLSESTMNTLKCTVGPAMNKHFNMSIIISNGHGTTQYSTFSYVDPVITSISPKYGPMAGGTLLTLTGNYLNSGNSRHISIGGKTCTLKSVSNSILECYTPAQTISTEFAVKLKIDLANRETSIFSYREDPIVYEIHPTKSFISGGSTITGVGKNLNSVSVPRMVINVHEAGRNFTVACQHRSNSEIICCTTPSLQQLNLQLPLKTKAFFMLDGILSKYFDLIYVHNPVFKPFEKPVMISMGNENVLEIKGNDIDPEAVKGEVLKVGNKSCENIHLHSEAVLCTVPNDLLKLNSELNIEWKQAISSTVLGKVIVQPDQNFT
# T3 sequence (P02769 25-607 limits assumed): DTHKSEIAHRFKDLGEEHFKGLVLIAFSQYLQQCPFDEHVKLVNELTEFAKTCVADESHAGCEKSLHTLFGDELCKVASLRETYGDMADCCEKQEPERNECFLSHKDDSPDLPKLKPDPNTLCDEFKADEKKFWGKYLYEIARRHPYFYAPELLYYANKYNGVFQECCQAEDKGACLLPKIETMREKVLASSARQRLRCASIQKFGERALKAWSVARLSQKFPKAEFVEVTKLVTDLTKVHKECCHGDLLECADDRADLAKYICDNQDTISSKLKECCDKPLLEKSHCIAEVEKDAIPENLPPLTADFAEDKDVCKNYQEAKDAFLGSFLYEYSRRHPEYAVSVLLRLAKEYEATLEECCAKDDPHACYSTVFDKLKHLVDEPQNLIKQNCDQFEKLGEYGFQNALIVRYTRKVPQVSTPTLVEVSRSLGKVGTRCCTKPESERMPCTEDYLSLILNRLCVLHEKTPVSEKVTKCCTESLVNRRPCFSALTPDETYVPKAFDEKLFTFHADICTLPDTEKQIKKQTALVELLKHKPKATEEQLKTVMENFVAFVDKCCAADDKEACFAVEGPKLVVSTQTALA
# c-Met on human cells (Caki-1 cells, HUVECs, human primary hepatocytes), sequence (P08581 25-1390): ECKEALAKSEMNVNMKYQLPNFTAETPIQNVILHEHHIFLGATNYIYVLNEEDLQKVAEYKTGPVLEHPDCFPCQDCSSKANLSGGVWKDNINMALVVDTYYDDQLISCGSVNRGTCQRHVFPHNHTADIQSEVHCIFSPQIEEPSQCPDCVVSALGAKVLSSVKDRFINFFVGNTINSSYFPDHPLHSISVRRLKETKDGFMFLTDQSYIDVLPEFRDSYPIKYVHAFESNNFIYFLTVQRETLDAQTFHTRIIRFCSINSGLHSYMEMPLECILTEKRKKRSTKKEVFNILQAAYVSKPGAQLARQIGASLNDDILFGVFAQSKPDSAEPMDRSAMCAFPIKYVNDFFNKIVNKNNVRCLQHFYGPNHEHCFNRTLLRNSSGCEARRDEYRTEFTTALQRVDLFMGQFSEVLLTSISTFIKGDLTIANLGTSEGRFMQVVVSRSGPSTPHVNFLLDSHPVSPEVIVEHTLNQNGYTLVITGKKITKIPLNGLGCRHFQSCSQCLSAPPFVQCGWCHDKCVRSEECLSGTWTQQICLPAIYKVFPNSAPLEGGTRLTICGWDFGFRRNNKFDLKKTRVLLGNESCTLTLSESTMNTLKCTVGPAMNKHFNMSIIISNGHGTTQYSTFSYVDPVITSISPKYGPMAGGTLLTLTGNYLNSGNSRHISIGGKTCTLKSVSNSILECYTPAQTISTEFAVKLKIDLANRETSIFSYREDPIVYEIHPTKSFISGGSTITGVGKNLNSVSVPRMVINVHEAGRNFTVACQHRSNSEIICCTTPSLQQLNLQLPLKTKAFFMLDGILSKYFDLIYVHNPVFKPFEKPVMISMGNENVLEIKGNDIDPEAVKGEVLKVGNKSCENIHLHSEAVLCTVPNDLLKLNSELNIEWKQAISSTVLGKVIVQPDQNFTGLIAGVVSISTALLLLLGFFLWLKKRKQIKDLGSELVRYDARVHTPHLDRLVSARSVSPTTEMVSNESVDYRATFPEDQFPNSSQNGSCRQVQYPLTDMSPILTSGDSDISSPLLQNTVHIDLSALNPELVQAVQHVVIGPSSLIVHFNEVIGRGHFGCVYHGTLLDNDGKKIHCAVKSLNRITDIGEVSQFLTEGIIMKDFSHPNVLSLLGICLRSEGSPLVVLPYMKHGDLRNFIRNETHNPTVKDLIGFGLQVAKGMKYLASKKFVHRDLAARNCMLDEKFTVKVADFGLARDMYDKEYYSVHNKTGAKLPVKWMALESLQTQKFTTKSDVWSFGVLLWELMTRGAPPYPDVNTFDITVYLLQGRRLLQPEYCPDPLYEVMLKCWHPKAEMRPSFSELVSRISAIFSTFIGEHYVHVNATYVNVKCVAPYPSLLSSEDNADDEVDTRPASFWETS
binder,measurement,setting,value
B1,"degree of Akt phosphorylation relative to the 5D5 antibody (Caki-1 cells, 5 µg/ml antibody, phospho-AKT1 Ser473 sandwich ELISA)",[1],~84%
same,Kd,[2],< 1000 pM
same,Kd,[3],< 1000 pM
same,binding result,BSA (Takara),no binding
same,Kd,[4],398 pM
same,koff,[4],0.000188 s⁻¹
same,kon,[4],471000 M⁻¹ s⁻¹
same,Kd,[5],304 pM
same,koff,[5],0.000168 s⁻¹
same,kon,[5],553000 M⁻¹ s⁻¹
